Results published in publication PMC8608799, “The main oxidative inactivation pathway of the plant hormone auxin” (Nature Communications, 2021).

Assays:
Format in all cases: biochemical, Arabidopsis thaliana
Details in all cases: 1 mM MnCl2, 0.5 mM dithiothreitol, 50 mM Tris-HCl pH 7.4, 32 °C
[1] = tested on: O=C(O)C[C@H](NC(=O)Cc1c[nH]c2ccccc12)C(=O)O; assay: HPLC of hydrolysis product, kinetics
[2] = tested on: O=C(O)CC[C@H](NC(=O)Cc1c[nH]c2ccccc12)C(=O)O; assay: HPLC of hydrolysis product, kinetics
[3] = tested on: O=C(O)C[C@H](NC(=O)CC1C(=O)Nc2ccccc21)C(=O)O; assay: HPLC of hydrolysis product, kinetics
[4] = tested on: O=C(O)CC[C@H](NC(=O)CC1C(=O)Nc2ccccc21)C(=O)O; assay: HPLC of hydrolysis product, Lineweaver-Burk

Chain of GST-ILR1 (Arabidopsis thaliana) (chain, as listed by the source): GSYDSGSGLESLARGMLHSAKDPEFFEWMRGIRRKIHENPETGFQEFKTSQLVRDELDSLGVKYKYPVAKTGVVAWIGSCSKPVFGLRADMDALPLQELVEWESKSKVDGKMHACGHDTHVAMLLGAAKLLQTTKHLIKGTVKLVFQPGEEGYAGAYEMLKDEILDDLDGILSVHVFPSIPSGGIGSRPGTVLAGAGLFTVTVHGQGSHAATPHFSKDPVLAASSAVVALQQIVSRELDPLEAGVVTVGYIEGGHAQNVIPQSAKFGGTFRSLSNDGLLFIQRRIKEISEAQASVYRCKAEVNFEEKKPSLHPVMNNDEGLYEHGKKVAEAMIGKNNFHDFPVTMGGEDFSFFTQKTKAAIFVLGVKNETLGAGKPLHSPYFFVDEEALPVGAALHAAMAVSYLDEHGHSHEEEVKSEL

Substance: GST-ILR1 (Arabidopsis thaliana)
- Km [1]: 340.087 ± 41.4597 µM
- kcat [1]: 0.0025 s⁻¹
- Km [2]: 59.9723 ± 7.5726 µM
- kcat [2]: 0.021 s⁻¹
- Km [3]: 130.125 ± 25.3236 µM
- kcat [3]: 0.0036 s⁻¹
- Km [4]: 2.71 ± 0.34 µM
- kcat [4]: 0.0089 s⁻¹
